Data from paper PMC10036635, “FTD-tau S320F mutation stabilizes local structure and allosterically promotes amyloid motif-dependent aggregation” (Nature Communications, 2023).

Molecular target: the molecule itself
Assay: ThT fluorescence aggregation assay + negative-stain TEM; self-assembly of tau peptides at 200 µM; 1x PBS, 2 mM TCEP, pH 7, 25 µM ThT, 72 h; TEM of the endpoint

| Protein | binding result |
| --- | --- |
| DNIKHVPGGGSVQIVYKPVDLSKVTSKCGS (peptide, UniProt P10636-8 295-324, looked up, numbers count on: 2N4R tau (P10636-8); probably synthesised, acetylated and amidated like the others) [WT_(295-324) tau peptide] | binds |
| Ac-DNIKHVSGGGSVQIVYKPVDLSKVTSKCGSLGNIHH-NH2 (peptide, UniProt P10636-8 295-330, looked up, numbers count on: 2N4R tau (P10636-8); source: synthetic peptide (Genscript, > 95% purity)) [P301S_(295-330) tau peptide] | binds |
| Ac-DNIKHVPGGGSVQIVYKPVDSSKVTFKCGSLGNIHH-NH2 (peptide, UniProt P10636-8 295-330, looked up, numbers count on: 2N4R tau (P10636-8); source: synthetic peptide (Genscript, > 95% purity)) [L315S_S320F_(295-330) tau peptide] | binds |
| Ac-VQIVYKPVDLSKVTFKCGS-NH2 (peptide, UniProt P10636-8 306-324, looked up, numbers count on: 2N4R tau (P10636-8); source: synthetic peptide (Genscript, > 95% purity)) [S320F_(306-324) tau peptide] | binds |
| Ac-VQIVYKPVDLSKVTSKCGSLGNIHH-NH2 (peptide, UniProt P10636-8 306-330, looked up, numbers count on: 2N4R tau (P10636-8); source: synthetic peptide (Genscript, > 95% purity)) [WT_(306-330) tau peptide] | binds |
| Ac-DNIKHVSGGGSVQIVYKPVDLSKVTSKCGSLGNSHH-NH2 (peptide, UniProt P10636-8 295-330, looked up, numbers count on: 2N4R tau (P10636-8); source: synthetic peptide (Genscript, > 95% purity)) [P301S_I328S_(295-330) tau peptide] | binds |
| Ac-DNIKHVPGGGSVQIVYKPVDLSKVTVKCGSLGNIHH-NH2 (peptide, UniProt P10636-8 295-330, looked up, numbers count on: 2N4R tau (P10636-8); source: synthetic peptide (Genscript, > 95% purity)) [S320V tau peptide (295-330)] | binds |
| Ac-DNIKHVPGGGSVQIVYKPVDLSKVTFKCGSLGNSHH-NH2 (peptide, UniProt P10636-8 295-330, looked up, numbers count on: 2N4R tau (P10636-8); source: synthetic peptide (Genscript, > 95% purity)) [S320F_I328S_(295-330) tau peptide] | binds |
| Ac-DNIKHVPGGGSVQIVYKPVDLSKVTFKCGSLGNIHH-NH2 (peptide, UniProt P10636-8 295-330, looked up, numbers count on: 2N4R tau (P10636-8); source: synthetic peptide (Genscript, > 95% purity)) [S320F_(295-330) tau peptide] | binds |
| Ac-DNIKHVPGGGSVQIVYKPVDLSKVTFKCGSSGNIHH-NH2 (peptide, UniProt P10636-8 295-330, looked up, numbers count on: 2N4R tau (P10636-8); source: synthetic peptide (Genscript, > 95% purity)) [S320F_L325S_(295-330) tau peptide] | binds |
| Ac-DNIKHVPGGGSVQIVYKPVDLSKVTSKCGSLGNIHH-NH2 (peptide, UniProt P10636-8 295-330, looked up, numbers count on: 2N4R tau (P10636-8); source: synthetic peptide (Genscript, > 95% purity)) [WT_(295-330) tau peptide] | binds |
| Ac-DNIKHVPGGGSVQIVYKPVDLSKVTIKCGSLGNVHH-NH2 (peptide, UniProt P10636-8 295-330, looked up, numbers count on: 2N4R tau (P10636-8); source: synthetic peptide (Genscript, > 95% purity)) [S320I_I328V tau peptide (295-330)] | binds |
| Ac-VQIVYKPVDLSKVTSKCGS-NH2 (peptide, UniProt P10636-8 306-324, looked up, numbers count on: 2N4R tau (P10636-8); source: synthetic peptide (Genscript, > 95% purity)) [WT_(306-324) tau peptide] | binds |
| Ac-DNIKHVPGGGSVQIVYKPVDLSKVTSKCGFLGNIHH-NH2 (peptide, UniProt P10636-8 295-330, looked up, numbers count on: 2N4R tau (P10636-8); source: synthetic peptide (Genscript, > 95% purity)) [S324F_(295-330) tau peptide] | binds |
| Ac-VQIVYKPVDLSKVTFKCGSLGNIHH-NH2 (peptide, UniProt P10636-8 306-330, looked up, numbers count on: 2N4R tau (P10636-8); source: synthetic peptide (Genscript, > 95% purity)) [S320F_(306-330) tau peptide] | binds |
| DNIKHVPGGGSVQIVYKPVDLSKVTFKCGS (peptide, UniProt P10636-8 295-324, looked up, numbers count on: 2N4R tau (P10636-8); probably synthesised, acetylated and amidated like the others) [S320F_(295-324) tau peptide] | binds |
| Ac-DNIKHVPGGGSVQIVYKPVDLSKVTIKCGSLGNIHH-NH2 (peptide, UniProt P10636-8 295-330, looked up, numbers count on: 2N4R tau (P10636-8); source: synthetic peptide (Genscript, > 95% purity)) [S320I tau peptide (295-330)] | binds |
